# Article PMC10703047
# Target: DosR (DevR) (Mycobacterium tuberculosis H37Rv) (UniProt P9WMF9)
# Assay: EMSA
# Chain of DosR (DevR) (Mycobacterium tuberculosis H37Rv) (P9WMF9 whole entry): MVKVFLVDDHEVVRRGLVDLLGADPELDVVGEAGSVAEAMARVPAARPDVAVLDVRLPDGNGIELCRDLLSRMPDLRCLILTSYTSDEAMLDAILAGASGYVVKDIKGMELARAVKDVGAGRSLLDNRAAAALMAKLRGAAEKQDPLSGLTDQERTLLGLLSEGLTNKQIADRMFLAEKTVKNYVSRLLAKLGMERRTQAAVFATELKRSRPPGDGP
row,Sequence,binding
1,AGCGGGATCGCATCACGCATTGGGTACCTCCGATGCTGGCGGATAAAGCCTTTCGTGCCGGCGGATGATCCGAGGTCGCTAGCTGGCGAGGGCCATGGGCGAGCA (double strand) [rv2625 promoter],no binding
2,AGCGGTTCGGACTCCACCGCGTCTCCTGAGAGCTTCAGCGTTACATCGGTTGACGAGTTGAAGAATTTATCAGATAGTGCGGATGCGTGCGGGCCGCCCGCGGCCAATCGGCTACGGCGTACGCGAGTCAGC (double strand) [rv0081 promoter],no binding
3,TAAGTGGACACGAACCGTAAGTTTAGACTTACGGATATTCTTCCGCAAGGGTGCGCGGGTGGTGTGACACGTGATCCGGGCATCCCGTCACCCATGGCGTTGGAGCCGAGTATCGGTTGGCGACGTTGGCCCGCCGGAAAGTCGACTGGTACAAGCATTTTCCGAGAACCCATGCGGCGCGTCGCGGCGATGACCGGCAGAGAGGCTCCCTAGTATTGCGGCGTGCTGGATCGCTATGGAACCGA (double strand) [rv1955 promoter],binds
4,TGGTATCTGACACTGCTACGTTCCTTTCCGCTTGTTGGTCCACGTCCTTGCACGAGCCAACCGGACCATGGTCCGATTTATTCCGATCGCGTTACAGTGCAAAGGTGAGCGGCGCCGAGC (double strand) [rv3054 promoter],binds
